According to article doi:10.1101/2020.05.13.092544 (bioRxiv, 2020):

Molecular target: the molecule itself
Assay: SDS-PAGE

B1: His6-tagged periplasmic copper binding loop (sensor domain) of CopS, CopS(34-151) (domain or fragment, Pseudomonas aeruginosa, UniProt Q9I033 34-151, looked up)
chain: FSRAIDEHFVELDHMAMSAKLAVFRDELRGLGSEQQMRRREAELLRELARHPDLGLRLNGPDGNLWFERLPQPAHPGLPANRELGAPLEPGNDASPRLTVILDISHHQHFLQRMRQLI
binding result: binds
